The assay concerns intracellular proteome of ENR+CD and ENR organoids. Nature of the assay: LC-MS/MS TMT proteomics of ENR+CD versus ENR organoids. The format is cell-based, C57BL/6 mice. The conditions noted are these: for Average logFC: ENR+CD versus ENR organoids, sample pairs in aggregate (n=4, 2 technical replicates from two biological donors); for M1-1 Log2 Median Normalized / M1-2 Log2 Median Normalized / M2-1 Log2 Median Normalized / M2-2 Log2 Median Normalized: protein abundance ratio ENR+CD versus ENR organoids, LC-MS/MS TMT proteomics; for M1-1 Log2 Median Normalized: sample pair M1-1; for M1-2 Log2 Median Normalized: sample pair M1-2; for M2-1 Log2 Median Normalized: sample pair M2-1; for M2-2 Log2 Median Normalized: sample pair M2-2; for change: up = enriched in ENR+CD, down = enriched in ENR, FDR<0.05 and log fold change cut-off.

B1: Q9QXE2 (protein, UniProt Q9QXE2 1-573, looked up)
chain: MDPQGIVKAFPKRKKSHADLSSKALAKIPKREVGEARGWLSSLRAHIMPAGIGRARAELFEKQIIHHGGQVCSAQAPGVTHIVVDEDMDYERALRLLRLPQLPPGAQLVKSTWLSLCLQEGRLTDTEGFSLPMPKRSLDEPQPSKSGQDASAPGTQRDLPRTTLSLSPPHTRAVSPPPTAEKPSRTQAQLSSEDETSDGEGPQVSSADLQALITGHYPTPPEEDGGPDPAPEALDKWVCAQPSSQKATNYNLHITEKLEVLAKAYSVQGDKWRALGYAKAINALKSFHKPVSSYQEACSIPGIGKRMAEKVMEILESGHLRKLDHISDSVPVLELFSNIWGAGTKTAQMWYHQGFRNLEDLQSLGSLTAQQAIGLKHYDDFLDRMPREEAAEIEQTVRISAQAFNPGLLCVACGSYRRGKMTCGDVDVLITHPDGRSHRGIFSCLLDSLRQQGFLTDDLVSQEENGQQQKYLGVCRLPGPGKRHRRLDIIVVPYCEFACALLYFTGSAHFNRSMRALAKTKGMSLSEHALSAAVVRNSQGVKVGPGQVLPTPTEKDVFKHLGLPYREPAERDW
modifications: full-length
Turning to B1, the “Average logFC” value was found to be 1.478, the “M1-1 Log2 Median Normalized” value is listed as 0.861, the “M1-2 Log2 Median Normalized” value came to 1.509 and the “M2-1 Log2 Median Normalized” value is recorded as 1.4485. Also, the “M2-2 Log2 Median Normalized” value came out at 2.093 and the change entry is on record as “up”.

B2: Q9R022 (protein, UniProt Q9R022 1-198, looked up)
chain: MDAILNYRPEGSEDYYALLGCDELSSVEQILAEFKIRALECHPDKHPENSKAVETFQKLQKAKEILCNAESRARYDHWRRSQMSMPFEQWEALADSVKTSMHWAVRSKKDLMLEGSGQTFTSSVPNKERSEQRETKKGDPDSNPEKMKQKEPKFPEEGISPQNPDSPGLSDLNCGHLRFRWSGDAPSELLRKFRNYEI
modifications: full-length
In the case of B2, the “Average logFC” value worked out at 1.154, the “M1-1 Log2 Median Normalized” value was determined as 1.573, the “M1-2 Log2 Median Normalized” value is on record as 1.212 and the “M2-1 Log2 Median Normalized” value is 0.6885. Besides, the “M2-2 Log2 Median Normalized” value turned out to be 1.141 and the change entry is reported as “up”.

B3: Q9R098 (protein, UniProt Q9R098 1-653, looked up)
chain: MGRQAWISSLCPLPRPCPFLLLLLLLVVPRGAQPQAGRNHTEPPGPNVTATPVTPTIPVISGNVSTSTESAPAAETEGPQSERYPPPSSSSPPGGQVLTESGQPCRFPFRYGGRMLHSCTSEGSAYRKWCATTHNYDRDRAWGYCAEVTLPVEGPAILDPCASGPCLNGGTCSSTHDHGSYHCSCPLAFTGKDCGTEKCFDETRYEYFEVGDHWARVSEGHVEQCGCMEGQARCEDTHHTACLSSPCLNGGTCHLIVGTGTSVCTCPLGYAGRFCNIVPTEHCFLGNGTEYRGVASTAASGLSCLAWNSDLLYQELHVDSVAAAVLLGLGPHAYCRNPDKDERPWCYVVKDNALSWEYCRLTACESLARVHSQTPEILAALPESAPAVRPTCGKRHKKRTFLRPRIIGGSSSLPGSHPWLAAIYIGNSFCAGSLVHTCWVVSAAHCFANSPPRDSITVVLGQHFFNRTTDVTQTFGIEKYVPYTLYSVFNPNNHDLVLIRLKKKGERCAVRSQFVQPICLPEAGSSFPTGHKCQIAGWGHMDENVSSYSNSLLEALVPLVADHKCSSPEVYGADISPNMLCAGYFDCKSDACQGDSGGPLVCEKNGVAYLYGIISWGDGCGRLNKPGVYTRVANYVDWINDRIRPPKRPVATS
modifications: full-length
Turning to B3, the “Average logFC” value worked out at 1.366, the “M1-1 Log2 Median Normalized” value worked out at 1.864, the “M1-2 Log2 Median Normalized” value came to 1.188 and the “M2-1 Log2 Median Normalized” value is listed as 0.7445. Moreover, the “M2-2 Log2 Median Normalized” value is given as 1.669 and the change result is recorded as “up”.

B4: Q9QXV0 (protein, UniProt Q9QXV0 1-258, looked up)
chain: MAGSPLLCGPRAGGVGILVLLLLGLLRLPPTLSARPVKEPRSLSAASAPLVETSTPLRLRRAVPRGEAAGAVQELARALAHLLEAERQERARAEAQEAEDQQARVLAQLLRAWGSPRASDPPLAPDDDPDAPAAQLARALLRARLDPAALAAQLVPAPAAAPRPRPPVYDDGPTGPDVEDAGDETPDVDPELLRYLLGRILTGSSEPEAAPAPRRLRRSVDQDLGPEVPPENVLGALLRVKRLENPSPQAPARRLLPP
modifications: full-length
On to B4, for which the “Average logFC” value is 1.274, the “M1-1 Log2 Median Normalized” value is recorded as 1.444, the “M1-2 Log2 Median Normalized” value was 0.883 and the “M2-1 Log2 Median Normalized” value came to 1.5975. Moreover, the “M2-2 Log2 Median Normalized” value is 1.172 and the change entry is “up”.

B5: Q9QYB2 (protein, UniProt Q9QYB2 1-751, looked up)
chain: MAVPAALIPPTQLVPPQPPISTSASSSGTTTSTSSATSSPAPSIGPPASSGPTLFRPEPIASSASSSAAATVTSPGGGGGGSGGGGGSGGNGGGGGSNCNPSLAAGSSGGGVSAGGGGASSTPITASTGSSSSSSSSSSSSSSSSSSSSSSSSSSSCGPLPGKPVYSTPSPVENTPQNNECKMVDLRGAKVASFTVEGCELICLPQAFDLFLKHLVGGLHTVYTKLKRLEITPVVCNVEQVRILRGLGAIQPGVNRCKLISRKDFETLYNDCTNASSRPGRPPKRTQSVTSPENSHIMPHSVPGLMSPGIIPPTGLTAAAAAAAAATNAAIAEAMKVKKIKLEAMSNYHASNNQHGADSENGDMNSSVGSSGGSWDKETLHSPPSQGSQAPVAHARMPAAFSLPVSHPLNHLQHSHLPPNGLELPFMMMPHPLIPVSLPPASVTMAMSQMNHLSTIANMAAAAQVQSPPSRVETSVIKERVPDSPSPAPSLEEGRRPGSHPSSHRSSSVSSSPARTESSSDRIPVHQNGLSMNQMLMGLSPNVLPGPKEGDLAGHDMGHESKRIHIEKDETPLSTPTARDSIDKLSLTGHGQPLPPGFPSPFLFPDGLSSIETLLTNIQGLLKVAIDNARAQEKQVQLEKTELKMDFLRERELRETLEKQLAMEQKNRAIVQKRLKKEKKAKRKLQEALEFETKRREQAEQTLKQAASADSLRVLNDSLTPEIEADRSGGRADAERTIQDGRLYLKTTVMY
modifications: full-length
On to B5, for which the “Average logFC” value came out at 1.286, the “M1-1 Log2 Median Normalized” value is 0.838, the “M1-2 Log2 Median Normalized” value came to 1.286 and the “M2-1 Log2 Median Normalized” value is 1.3505. Further, the “M2-2 Log2 Median Normalized” value is 1.402 and the change result is listed as “up”.

B6: Q9QYY9 (protein, UniProt Q9QYY9 1-377, looked up)
chain: MGTQGKVIKCKAAIAWKTGSPLCIEEIEVSPPKACEVRIQVIATCVCPTDINATDPKKKALFPVVLGHECAGIVESVGPGVTNFKPGDKVIPFFAPQCKRCKLCLSPLTNLCGKLRNFKYPTIDQELMEDRTSRFTCKGRSIYHFMGVSSFSQYTVVSEANLARVDDEANLERVCLIGCGFSSGYGAAINTAKVTPSSTCAVFGLGCVGLSAIIGCKIAGASRIIAIDINGEKFPKAKALGATDCLNPRELDKPVQDVITELTAGGVDYSLDCAGTAQTLKAAVDCTVLGWGSCTVVGAKVDKMTIPTVDVILGRSINGTFFGGWKSVDSVPNLVSDYKNKKFDLDLLVTHALPFESINDAIDLMKEGKSIRTILTF
modifications: full-length
As for B6, the “Average logFC” value is −1.654, the “M1-1 Log2 Median Normalized” value is −1.109, the “M1-2 Log2 Median Normalized” value was −2.606 and the “M2-1 Log2 Median Normalized” value is reported as −2.0305. The “M2-2 Log2 Median Normalized” value is on record as −0.87 and the change entry was “down”.

Values taken from patent US11994512B2, “Single-cell genomic methods to generate ex vivo cell systems that recapitulate in vivo biology with improved fidelity” (Massachusetts Institute of Technology, priority 2018, dated 2024).
